The values that follow come from patent US20040132094A1 (ANAPHORE, published 2004).

For this assay, the target named is T1, bovine serum albumin (bovine, UniProt P02769 25-607).
T1 construct: Control coating; also called BSA
Nature of the assay: phage ELISA on coated BSA, HRP anti-phage detection. Here is the method:
Recombinant phages were isolated by precipitation with poly(ethylene glycol) (PEG 8000) and samples of Phtlec and PhTN3 phage preparations as well as a sample of helper phage were subjected to an ELISA-type sandwich assay, in which wells of a Maxisorb (Nunc) multiwell plate were first incubated with anti-human tetranectin or bovine serum albumin (BSA) and blocked in skimmed milk or skimmed milk/EDTA. Briefly, cultures of pPhtlec and pPhTN3 phagemid transformed TG1 cells were grown at 37° C. in 2×TY-medium supplemented with 2% glucose and 100 mg/L ampicillin until A₆₀₀ reached 0.5. By then the helper phage, M13K07, was added to a concentration of 5×10⁹ pfu/mL. The cultures were incubated at 37° C. for another 30 min before cells were harvested by centrifugation and resuspended in the same culture volume of 2×TY medium supplemented with 50 mg/L kanamycin and 100 mg/L ampicillin and transferred to a fresh set of flasks and grown for 16 hours at 25° C. Cells were removed by centrifugation and the phages precipitated from 20 mL culture supernatant by the addition of 6 mL of ice cold 20% PEG 8000, 2.5 M NaCl. After mixing the solution was left on ice for one hour and centrifuged at 4° C. to isolate the precipitated phages. […] Phages in the wells were detected after incubation with HRP-conjugated anti-phage conjugate (Amersham Pharmacia, code no. 27-9421-01) followed by further washing.

T1 sequence (P02769 25-607 limits assumed): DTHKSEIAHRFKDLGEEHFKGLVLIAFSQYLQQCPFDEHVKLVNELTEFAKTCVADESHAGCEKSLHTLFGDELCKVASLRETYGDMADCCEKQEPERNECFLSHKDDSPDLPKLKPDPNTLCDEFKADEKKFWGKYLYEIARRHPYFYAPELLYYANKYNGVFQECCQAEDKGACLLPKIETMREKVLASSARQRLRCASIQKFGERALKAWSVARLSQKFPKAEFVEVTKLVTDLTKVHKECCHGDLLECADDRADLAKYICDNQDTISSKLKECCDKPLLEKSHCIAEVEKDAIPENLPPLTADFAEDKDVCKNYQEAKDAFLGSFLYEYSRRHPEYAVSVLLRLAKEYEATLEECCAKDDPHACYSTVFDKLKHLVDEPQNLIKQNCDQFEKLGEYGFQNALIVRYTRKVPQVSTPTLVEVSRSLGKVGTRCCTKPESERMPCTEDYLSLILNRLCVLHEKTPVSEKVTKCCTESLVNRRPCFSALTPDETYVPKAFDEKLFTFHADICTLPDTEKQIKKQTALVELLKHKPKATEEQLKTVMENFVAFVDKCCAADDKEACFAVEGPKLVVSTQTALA

B1: Phtlec phage (Phtlec-gene III fusion protein displayed on recombinant phage) (other)
chain: PAMAEPPTQKPKKIVNAKKDVVNTKMFEELKSRLDTLAQEVALLKEQQALQTVVLKGTKVHMKVFLAFTQTKTFHEASEDCISRGGTLSTPQTGSENDALYEYLRQSVGNEAEIWLGLNDMAAEGTWVDMTGTRIAYKNWETEITAQPDGGKTENCAVLSGAANGKWFDKRCRDQLPYICQFGIVA
notes: Tested as whole phage particles rescued with M13KO7; claim 15 says htlec itself is position 5 Glu to 185 Val of it; also called human Phtlec phages; Phlec; not shown: phage gene III protein fused after the Phtlec part, as encoded by phagemid pCANTAB 5E; limits and any tag in between not
With B1, the binding result is recorded as “no binding”.

B2: PhTN3 phage (PhTN3-gene III fusion protein displayed on recombinant phage) (other)
chain: PAMAALQTVCLKGTKVHMKCFLAFTQTKTFHEASEDCISRGGTLSTPQTGSENDALYEYLRQSVGNEAEIWLGLNDMAAEGTWVDMTGARIAYKNWETEITAQPDGGKTENCAVLSGAANGKWFDKRCRDQLPYICQFGIVA
notes: Tested as whole phage particles rescued with M13KO7; claim 18 says hTN3 is position 5 Ala to 141 Val of it; also called human PhTN3 phages; PhCTLD; not shown: phage gene III protein fused after the PhTN3 part, as encoded by phagemid pCANTAB 5E; limits and any tag in between not
For the molecule B2, the binding result is “no binding”.
